Our source for the Kd values is paper PMC2889927.

The target of this experiment is lactosylceramide-loaded recombinant human CD1d complex (human) (UniProt P15813). In words: SPR. (Surface plasmon resonance follows binding to a sensor surface in real time, without labels.)
Sequence of lactosylceramide-loaded recombinant human CD1d complex (human) (P15813 20-335, one chain of several): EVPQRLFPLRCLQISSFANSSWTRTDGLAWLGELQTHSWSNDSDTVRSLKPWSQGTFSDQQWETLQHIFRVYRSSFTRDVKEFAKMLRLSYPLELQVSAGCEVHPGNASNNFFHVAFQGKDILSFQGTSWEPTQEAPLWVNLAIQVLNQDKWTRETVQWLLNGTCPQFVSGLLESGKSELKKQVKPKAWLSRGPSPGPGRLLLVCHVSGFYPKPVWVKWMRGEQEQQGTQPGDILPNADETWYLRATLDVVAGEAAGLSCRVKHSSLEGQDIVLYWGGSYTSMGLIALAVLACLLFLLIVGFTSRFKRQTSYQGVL

Sequence of recombinant soluble iNKT TCR 4C1369 (Vα24/Vβ11 heterodimer) (A0A0B4J240 whole entry, looked up, tested part not stated, one chain of several): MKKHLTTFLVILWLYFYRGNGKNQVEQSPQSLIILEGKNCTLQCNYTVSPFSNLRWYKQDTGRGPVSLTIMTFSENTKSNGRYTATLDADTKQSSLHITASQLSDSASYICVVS

“recombinant soluble iNKT TCR 4C1369 (Vα24/Vβ11 heterodimer) (from UniProt A0A0B4J240)”: the equilibrium dissociation constant (Kd) (usually the constant that tells how readily two partners part at equilibrium) worked out at 2030 nM.
